# T1: human G-protein coupled receptor 1 (GPR1), FLAG-BRIL fusion construct for cryo-EM (human, UniProt P46091 1-355)
# T1 sequence: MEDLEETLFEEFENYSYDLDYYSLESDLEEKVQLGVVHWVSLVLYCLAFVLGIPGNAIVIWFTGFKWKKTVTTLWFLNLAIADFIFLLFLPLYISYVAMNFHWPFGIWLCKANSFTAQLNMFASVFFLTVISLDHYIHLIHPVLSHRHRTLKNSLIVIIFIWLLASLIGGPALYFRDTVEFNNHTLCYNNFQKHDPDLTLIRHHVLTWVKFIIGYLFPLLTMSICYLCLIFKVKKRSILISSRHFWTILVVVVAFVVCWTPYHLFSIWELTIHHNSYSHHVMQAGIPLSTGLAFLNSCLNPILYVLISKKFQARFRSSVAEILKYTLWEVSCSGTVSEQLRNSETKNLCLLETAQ
# Target: T1, human G-protein coupled receptor 1 …
# Test: cryo-EM structure
binder,measurement,value
full-length chemerin (21-157) (ligand) ELTEAQRRGLQVALEEFHKHPPVQWAFQETSVESAVDTPFPAGIFVRLEFKLQQTSCRKRDWKKPECKVRPNGRKRKCLACIKLGSEDKVLGRLVHCPIETQVLREAEEHQETQCLRVQRAGEDPHSFYFPGQFAFS,binding result,binds

# Source: doi:10.1101/2023.06.03.543554 (bioRxiv, 2023)
